# Measured values: patent publication US20250043302A1, “MUTATED HYDROXYPHENYLPYRUVATE DIOXYGENASE POLYPEPTIDE, AND CODING GENE AND USE THEREOF” (BEIJING DABEINONG BIOTECHNOLOGY CO., LTD., priority 2021, published 2025)
# Changes are numbered by the printed parent chain. Names may count otherwise.
# B1: PfHPPD-02: nucleotide sequence encoding wild-type Pseudomonas fluorescens HPPD; vector DBN11770 (nucleic acid)
# DNA: ATGGCCGATTTGTACGAGAACCCAATGGGACTCATGGGTTTCGAGTTCATTGAGTTCGCTTCCCCCACCCCAGGTACTTTGGAGCCTATTTTCGAGATCATGGGCTTCACTAAGGTTGCCACACACAGGTCTAAGAATGTGCATCTCTACCGCCAAGGAGAGATTAACCTGATCCTTAACAATGAGCCTAATAGCATCGCCTCATACTTCGCTGCTGAGCATGGTCCATCTGTTTGCGGCATGGCTTTCAGAGTGAAGGATTCACAAAAGGCCTACAACAGGGCTTTGGAGCTCGGCGCCCAGCCCATTCATATCGACACCGGACCTATGGAGCTGAATCTTCCTGCCATTAAGGGCATCGGCGGAGCTCCATTGTACCTCATTGATCGCTTCGGCGAGGGCTCCTCTATCTACGATATCGACTTCGTGTACCTGGAGGGCGTTGAGAGAAACCCTGTGGGAGCTGGTCTGAAGGTTATCGACCACCTTACTCATAATGTTTACAGAGGAAGGATGGTGTACTGGGCCAACTTCTACGAGAAGCTGTTCAATTTCCGCGAGGCTAGATACTTCGATATTAAGGGCGAGTACACAGGACTTACCTCCAAGGCCATGTCTGCTCCCGACGGTATGATTAGGATCCCATTGAACGAGGAGAGCTCAAAGGGCGCCGGACAGATTGAGGAGTTCCTCATGCAATTCAATGGTGAAGGCATCCAGCACGTTGCTTTCCTGACAGATGACCTTGTGAAGACCTGGGATGCCCTCAAGAAGATTGGCATGAGGTTCATGACCGCTCCACCTGACACTTACTACGAGATGTTGGAGGGACGCCTCCCTGATCATGGCGAGCCCGTTGACCAGCTGCAAGCTAGAGGAATCCTCCTGGATGGTTCCTCTGTGGAGGGCGACAAGAGGCTTTTGCTCCAAATTTTCAGCGAGACTCTTATGGGACCCGTGTTCTTCGAGTTCATCCAGAGGAAGGGCGATGACGGATTCGGCGAGGGCAACTTCAAGGCCCTGTTCGAGTCTATTGAGAGAGATCAGGTGAGGCGCGGCGTTCTTACAGCTGACTGA
# modifications: PfHPPD-02 Nucleotide Sequence
# notes: vector DBN11770
# B2: PfHPPDm-F372A-02: nucleotide sequence encoding Pseudomonas fluorescens HPPD with F372A; vector DBN11771 (nucleic acid)
# DNA: B1 DNA with T934G, T935C, C936T
# modifications: PfHPPDm-F372A-02 Nucleotide Sequence
# notes: vector DBN11771
# B3: PfHPPDm-F383W-02: nucleotide sequence encoding Pseudomonas fluorescens HPPD with F383W; vector DBN11772 (nucleic acid)
# DNA: B1 DNA with T962G, C963G
# modifications: PfHPPDm-F383W-02 Nucleotide Sequence
# notes: vector DBN11772
# B4: PfHPPDm-F372A-F383W-02: nucleotide sequence encoding Pseudomonas fluorescens HPPD with F372A+F383W; vector DBN11773 (nucleic acid)
# DNA: B1 DNA with T934G, T935C, C936T, T962G, C963G
# modifications: PfHPPDm-F372A-F383W-02 Nucleotide Sequence
# notes: vector DBN11773
# System: Arabidopsis thaliana T1 plants
# Test: Mesotrione tolerance of transgenic Arabidopsis thaliana T1 plants (spray, bleached leaf area grade, damage score)
# Format: in vivo
# Set-up: Scores: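 damage score 0-100 computed as Σ(N×S)/(T×M)×100 over grades 0-3 with higher meaning more damage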
# Conditions: mesotrione 52.5 g ai/ha; Arabidopsis thaliana T1 plants
# Text: T1 transformants were initially selected from the untransformed seeds using a glufosinate selection scheme. The Arabidopsis thaliana T1 plants (AsHPPD-02) into which the AsHPPD-02 nucleotide sequence was introduced, the Arabidopsis thaliana T1 plants (AsHPPDm-F372A-02) into which the AsHPPDm-F372A-02 nucleotide sequence was introduced, the Arabidopsis thaliana T1 plants (AsHPPDm-F383W-02) into which the AsHPPDm-F383W-02 nucleotide sequence was introduced, the Arabidopsis thaliana T1 plants (AsHPPDm-F372A-F383W-02) into which the AsHPPDm-F372A-F383W-02 nucleotide sequence was introduced, the Arabidopsis thaliana T1 plants (DBN11726N) into which the control recombinant expression vector DBN11726N was introduced, and the wild-type Arabidopsis thaliana plants (CK) (18 days after sowing) were sprayed respectively with topramezone at three concentrations (100 g ai/ha (four-fold field concentration, 4×), 200 g ai/ha (eight-fold field concentration, 8×), and 0 g ai/ha (water, 0×)), isoxaflutole at three concentrations (140 g ai/ha (two-fold field concentration, 2×), 280 g ai/ha (four-fold field concentration, 4×), and 0 g ai/ha (water, 0×)), and mesotrione at three concentrations (210 g ai/ha (two-fold field concentration, […]), 420 g ai/ha (four-fold field concentration, 4×), and 0 g ai/ha (water, 0×)), to determine the tolerance of Arabidopsis thaliana to the herbicides. The degree of damage caused by the herbicide was measured for each plant according to the proportion of bleached leaf area (the proportion of bleached leaf area=bleached leaf area/total leaf area×100%) 7 days after spraying (7 DAT): the case where there is basically no bleached phenotype is defined as grade 0, the case where the proportion of bleached leaf area is less than 50% is defined as grade 1, the case where the proportion of bleached leaf area is more than 50% is defined as grade 2, and the case where the proportion of bleached leaf area is 100% grade is defined as grade 3.
# According to the method as described above in point 6 of Example 1, the aforementioned Arabidopsis thaliana T1 plants and wild-type Arabidopsis thaliana plants (CK) (18 days after sowing) were sprayed respectively with topramezone at three concentrations (25 g ai/ha (one-fold field concentration, 1×). 100 g ai/ha (four-fold field concentration, 4×), and 0 g ai/ha (water, 0×)), isoxaflutole at three concentrations (35 g ai/ha (half-fold field concentration, 0.5×). 70 g ai/ha (one-fold field concentration, 1×), and 0 g ai/ha (water, 0×)), and mesotrione at three concentrations (52.5 g ai/ha (half-fold field concentration, 0.5×), 105 g ai/ha (one-fold field concentration, 1×), and 0 g ai/ha (water, 0×)) to detect the tolerance of Arabidopsis thaliana to the herbicides.
# According to the method as described above in point 6 of Example 1, the aforementioned Arabidopsis thaliana T1 plants and wild-type Arabidopsis thaliana plants (CK) (18 days after sowing) were sprayed with topramezone at three different concentrations (i.e., 100 g ai/ha (four-fold field concentration, 4×), 200 g ai/ha (eight-fold field concentration, 8×) and 0 g ai/ha (water, 0×)), isoxaflutole at three different concentrations (i.e., 140 g ai/ha (two-fold field concentration, 2×), 280 g ai/ha (four-fold field concentration, 4×) and 0 g ai/ha (water, 0×)), and mesotrione at three different concentrations (i.e., 210 g ai/ha (two-fold field concentration, 2×), 420 g ai/ha (four-fold field concentration, 4×) and 0 g ai/ha (water, 0×)) respectively to detect the herbicide tolerance of Arabidopsis thaliana. […]
Molecule,Resistance evaluation,Scores
B1,Non-resistant,100
B2,Moderately,31
B3,Non-resistant,77
B4,Moderately,21

# Same assay, conditions: mesotrione 52.5 g ai/ha; Arabidopsis thaliana T1 plants; 16 plants
Molecule,Grade 0 (classification and statistics of the grade of pesticide damage; number of plants),Grade 1 (classification and statistics of the grade of pesticide damage; number of plants),Grade 2 (classification and statistics of the grade of pesticide damage; number of plants),Grade 3 (classification and statistics of the grade of pesticide damage; number of plants)
B1,0,0,0,16
B2,6,7,1,2
B3,0,0,11,5
B4,7,8,1,0

# Same assay, conditions: mesotrione 105 g ai/ha; Arabidopsis thaliana T1 plants
Molecule,Resistance evaluation,Scores
B1,Non-resistant,100
B2,Poorly resistant,58
B3,Non-resistant,100
B4,Moderately,33

# Same assay, conditions: mesotrione 105 g ai/ha; Arabidopsis thaliana T1 plants; 16 plants
Molecule,Grade 0 (classification and statistics of the grade of pesticide damage; number of plants),Grade 1 (classification and statistics of the grade of pesticide damage; number of plants),Grade 2 (classification and statistics of the grade of pesticide damage; number of plants),Grade 3 (classification and statistics of the grade of pesticide damage; number of plants)
B1,0,0,0,16
B2,0,4,12,0
B3,0,0,0,16
B4,5,6,5,0
